These results are taken from patent publication US20140017221.

In data set [1] the test system is Flag-tagged SOD2 mutant of K122.
In data set [2] the test system is Flag-tagged SOD2 mutant of K130.
The test system of a further data set is T1, Flag-tagged SOD2.
T1 sequence: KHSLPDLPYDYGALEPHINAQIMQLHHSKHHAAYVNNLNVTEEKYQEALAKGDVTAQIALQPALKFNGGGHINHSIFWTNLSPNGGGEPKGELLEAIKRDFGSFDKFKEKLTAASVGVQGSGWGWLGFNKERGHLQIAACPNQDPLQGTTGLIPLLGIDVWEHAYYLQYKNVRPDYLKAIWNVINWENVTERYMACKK

In data set [3] the test system is Flag-tagged SOD2 mutant of K68.
For data set [4], the target named is T2, Long-chain acyl CoA dehydrogenase (endogenous, mouse liver), P51174.
T2 chain: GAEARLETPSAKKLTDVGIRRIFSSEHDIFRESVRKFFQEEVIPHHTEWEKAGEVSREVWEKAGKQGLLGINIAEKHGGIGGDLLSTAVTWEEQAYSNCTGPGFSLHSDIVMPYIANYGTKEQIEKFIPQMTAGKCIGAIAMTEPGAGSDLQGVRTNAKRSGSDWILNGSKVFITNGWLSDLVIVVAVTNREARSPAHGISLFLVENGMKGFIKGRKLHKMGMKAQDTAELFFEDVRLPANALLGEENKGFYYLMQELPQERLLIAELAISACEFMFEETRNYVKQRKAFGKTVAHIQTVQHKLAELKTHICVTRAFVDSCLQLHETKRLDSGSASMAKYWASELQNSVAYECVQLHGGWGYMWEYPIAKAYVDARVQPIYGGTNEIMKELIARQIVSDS

As to “SIRT3 (co-transfected expression construct)”, the “acetylation levels of immunopurified SOD2 mutant” value in the data set on Flag-tagged SOD2 K53/89R was “SIRT3 co-expression further decreased acetylation levels of K53R and K89R, but not K53/89R”; in the data set on Flag-tagged SOD2 K89R it was “SIRT3 co-expression further decreased acetylation levels of K53R and K89R, but not K53/89R”; in the data set with Flag-tagged SOD2 K53R, “SIRT3 co-expression further decreased acetylation levels of K53R and K89R, but not K53/89R”. Further, the “enzymatic activity of immunopurified SOD2 K53/89R (superoxide conversion, colorimetric)” value in the data set with Flag-tagged SOD2 K53/89R was “SIRT3 did not further increase its enzymatic activity”. In addition, the “acetylation status of immunopurified SOD2 mutant” value in data set [1], in data set [2] and in data set [3] was “SIRT3 co-expression reduced acetylation levels of these three SOD2 mutants” in each case. Moreover, the “acetylation levels for SOD2 after immunoprecipitation, western blotting with anti-acetyllysine antibody” value with Flag-tagged SOD2 is “SIRT3, but not SIRT3-H248Y, deacetylated SOD2”. In the data set with Flag-tagged SOD2, the “enzymatic activity of immunopurified SOD2 (superoxide conversion, colorimetric)” value is “Overexpression of WT SIRT3 decreased the acetylation of SOD2 (FIG. 3D, E, G) and significantly increased its enzymatic activity”.

Turning to SIRT3-H248Y, in the data set with Flag-tagged SOD2, the “acetylation levels for SOD2 after immunoprecipitation, western blotting with anti-acetyllysine antibody” value was “SIRT3, but not SIRT3-H248Y, deacetylated SOD2” and the “enzymatic activity of immunopurified SOD2 (superoxide conversion, colorimetric)” value is listed as “overexpression of SIRT3-H248Y had the opposite effect”.

B1: SIRT3 (endogenous, mouse tissue) (protein)
chain: PISLCVGASGGFGGGGSSEKKFSLQDVAELLRTRACSRVVVMVGAGISTPSGIPDFRSPGSGLYSNLQQYDIPYPEAIFELGFFFHNPKPFFMLAKELYPGHYRPNVTHYFLRLLHDKELLLRLYTQNIDGLERASGIPASKLVEAHGTFVTATCTVCRRSFPGEDIWADVMADRVPRCPVCTGVVKPDIVFFGEQLPARFLLHMADFALADLLLILGTSLEVEPFASLSEAVQKSVPRLLINRDLVGPFVLSPRRKDVVQLGDVVHGVERLVDLLGWTQELLDLMQRERGKLDGQDR
B1: the “enzymatic activity of LCAD in liver lysates (oxidation of palmitoyl-CoA)” value in data set [4] is “we observed a 50% increase in enzymatic activity of LCAD in WT but not SIRT3 KO mice during CR”.
